Reference: patent US20260085127A1

What was measured:
[1] = target: T1, human CD39 (Accession No. NM_001776.6) expressed on cells (human) (UniProt P49961); assay: flow cytometry, Jurkat/TIM-3 + CD39 cells, KD from MFI
T1 sequence (looked up): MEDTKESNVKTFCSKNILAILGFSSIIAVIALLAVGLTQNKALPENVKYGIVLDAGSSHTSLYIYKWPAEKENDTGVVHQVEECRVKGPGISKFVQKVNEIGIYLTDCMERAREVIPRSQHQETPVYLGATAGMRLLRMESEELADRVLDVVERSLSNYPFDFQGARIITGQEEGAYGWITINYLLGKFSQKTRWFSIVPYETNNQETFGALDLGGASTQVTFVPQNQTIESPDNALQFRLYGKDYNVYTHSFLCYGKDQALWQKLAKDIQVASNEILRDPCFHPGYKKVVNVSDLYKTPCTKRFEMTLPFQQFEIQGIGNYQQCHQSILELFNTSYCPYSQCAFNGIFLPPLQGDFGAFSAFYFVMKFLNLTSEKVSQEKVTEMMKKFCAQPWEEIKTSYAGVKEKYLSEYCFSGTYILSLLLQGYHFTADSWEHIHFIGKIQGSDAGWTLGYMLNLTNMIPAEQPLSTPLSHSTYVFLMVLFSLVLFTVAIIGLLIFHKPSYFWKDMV

[2] = target: T2, recombinant human CD39 (in-house product, 38 to 478 aa of Accession No. NM_001776.6) (human) (UniProt P49961); assay: SPR Biacore8K, antibody captured on anti-human IgG, antigen as analyte
T2 sequence (looked up): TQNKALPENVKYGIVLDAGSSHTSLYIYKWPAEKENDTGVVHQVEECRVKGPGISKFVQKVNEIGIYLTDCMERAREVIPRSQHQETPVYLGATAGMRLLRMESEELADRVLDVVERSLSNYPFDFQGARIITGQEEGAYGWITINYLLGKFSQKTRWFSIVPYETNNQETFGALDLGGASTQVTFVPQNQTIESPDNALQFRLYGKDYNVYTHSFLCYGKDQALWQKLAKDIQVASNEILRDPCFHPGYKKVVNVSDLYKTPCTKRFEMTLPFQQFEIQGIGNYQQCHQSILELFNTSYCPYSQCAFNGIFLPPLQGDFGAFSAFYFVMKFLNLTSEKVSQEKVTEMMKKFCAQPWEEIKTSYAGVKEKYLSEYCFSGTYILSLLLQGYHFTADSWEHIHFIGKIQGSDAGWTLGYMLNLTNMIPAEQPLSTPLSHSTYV

[3] = target: T1, human CD39 (Accession No. NM_001776.6) expressed on cells (human); assay: flow cytometry, Jurkat/CD39 cells, KD from MFI

- Kd [1]: 2.08 nM
- Kd [2]: 0.106 nM
- koff [2]: 0.000176 s⁻¹
- kon [2]: 1.66e+06 M⁻¹ s⁻¹
- Kd [3]: 1.88 nM
B1: HuP4_41_sc (antibody, part only; not given: linker and LALA Fc, not shown: a dimerising Fc or GST)
scFv, part: QVQLVESGGGVVQPGGSLRLSCVVSGFTLTNYGVHWVRQAPGKGLEWLAVILRRGSTDYNAAFMSRLAISKDNSKNTVYLELNSLRLDDTAVVAGDYFDYWGQGTTVTVSSGGGGSGGGGSGGGGSGGGGSQVQLVESGGGVVQPGGSLRLSCVVSGFTLTNYGVHWVRQAPGKGLEWLAVILRRGSTDYNAAFMSRLAISKDNSKNTVYLELNSLRLDDTAVVAGDYFDYWGQGTTVTVSS
